# Data: patent publication US20230346885A1 (published 2023)
# T1: SMC1B peptide on HLA (human)
# T1 peptide: ALDNTNIGKV
# T2: PIWIL1 peptide on HLA (human)
# T2 peptide: SIAGFVASI
# T3: RLN1 peptide on HLA (human)
# T3 peptide: ALSERQPSL
# T4: XAGE1 peptide on HLA (human)
# T4 peptide: KMPEAGEEQPQV
# T5: PIWIL1 peptide on HLA (human)
# T5 peptide: SLIQNLFKV
# T6: SLC45A2 peptide on HLA (human)
# T6 peptide: YVTPVLLSV
# T7: PIWIL1 peptide on HLA (human)
# T7 peptide: SLSNRLYYL
# Experiments:
# Assay in all cases: binding, other
# SMC1B peptide on HLA = target: T1, SMC1B peptide on HLA
# PIWIL1 peptide on HLA [1] = target: T2, PIWIL1 peptide on HLA
# RLN1 peptide on HLA = target: T3, RLN1 peptide on HLA
# XAGE1 peptide on HLA = target: T4, XAGE1 peptide on HLA
# PIWIL1 peptide on HLA [2] = target: T5, PIWIL1 peptide on HLA
# SLC45A2 peptide on HLA = target: T6, SLC45A2 peptide on HLA
# PIWIL1 peptide on HLA [3] = target: T7, PIWIL1 peptide on HLA
binder,measurement,setting,value
"TCR of SEQ ID NOs 585 and 586 (TCR, V domains shown) Valpha: KQEVTQIPAALSVPEGENLVLNCSFTDSAIYNLQWFRQDPGKGLTSLLLIQSSQREQTSGRLNASLDKSSGRSTLYIAASQPGDSATYLCAVRGAGGTSYGKLTFGQGTILTVHP Vbeta: NAGVTQTPKFQVLKTGQSMTLQCAQDMNHNSMYWYRQDPGMGLRLIYYSASEGTTDKGEVPNGYNVSRLNKREFSLRLESAAPSQTSVYFCASSDESYGYYGYTFGSGTRLTVV",binding result,SMC1B peptide on HLA,recognises
"TCR of SEQ ID NOs 513 and 514 (TCR, V domains shown) Valpha: KQEVTQIPAALSVPEGENLVLNCSFTDSAIYNLQWFRQDPGKGLTSLLLIQSSQREQTSGRLNASLDKSSGRSTLYIAASQPGDSATYLCAVGGYNKLIFGAGTRLAVHP Vbeta: NAGVTQTPKFRVLKTGQSMTLLCAQDMNHEYMYWYRQDPGMGLRLIHYSVGAGITDQGEVPNGYNVSRSTTEDFPLRLLSAAPSQTSVYFCASRATGLTEAFFGQGTRLTVV",binding result,PIWIL1 peptide on HLA [1],recognises
"TCR of SEQ ID NOs 581 and 582 (TCR, V domains shown) Valpha: KQEVTQIPAALSVPEGENLVLNCSFTDSAIYNLQWFRQDPGKGLTSLLLIQSSQREQTSGRLNASLDKSSGRSTLYIAASQPGDSATYLCAVFNDYKLSFGAGTTVTVRA Vbeta: NAGVTQTPKFQVLKTGQSMTLQCAQDMNHEYMSWYRQDPGMGLRLIHYSVGAGITDQGEVPNGYNVSRLNKREFSLRLESAAPSQTSVYFCASSEWFDTEAFFGQGTRLTVV",binding result,SMC1B peptide on HLA,recognises
"TCR of SEQ ID NOs 523 and 524 (TCR, V domains shown) Valpha: QKEVEQNSGPLSVPEGAIASLNCTYSDRGSQSFFWYRQYSGKSPELIMSIYSNGDKEDGRFTAQLNKASQYVSLLIRDSQPSDSATYLCAVNAGGTSYGKLTFGQGTILTVHP Vbeta: NAGVTQTPKFRVLKTGQSMTLQCAQDMNHNSMYWYRQDPGMGLRLIYYSASEGTTDKGEVPNGYNVSRLNKREFSLRLESAAPSQTSVYFCASSEIDVWYNSPLHFGNGTRLTVT",binding result,RLN1 peptide on HLA,recognises
"TCR of SEQ ID NOs 525 and 526 (TCR, V domains shown) Valpha: QKEVEQNSGPLSVPEGAIASLNCTYSDRGSQSFFWYRQYSGKSPELIMFIYSNGDKEDGRFTAQLNKASQYVSLLIRDSQPSDSATYLCAVGGYQKVTFGTGTKLQVIP Vbeta: NAGVTQTPKFGILKIGQSMTLQCAQDMNHNYMYWYRQDPGMGLKLIYYSVGAGITDKGEVPNGYNVSRSTTEDFPLRLELAAPSQTSVYFCASRVDSYNEQFFGPGTRLTVL",binding result,RLN1 peptide on HLA,recognises
"TCR of SEQ ID NOs 611 and 612 (TCR, V domains shown) Valpha: KQEVTQIPAALSVPEGENLVLNCSFTDSAIYNLQWFRQDPGKGLTSLLLIQSSQREQTSGRLNASLDKSSGRSTLYIAASQPGDSATYLCAVRPRGDSSYKLIFGSGTRLLVRP Vbeta: DGGITQSPKYLFRKEGQNVTLSCEQNLNHDAMYWYRQDPGQGLRLIYYSQIVNDFQKGDIAEGYSVSREKKESFPLTVTSAQKNPTAFYLCASSASGSIYNEQFFGPGTRLTVL",binding result,XAGE1 peptide on HLA,recognises
"TCR of SEQ ID NOs 503 and 504 (TCR, V domains shown) Valpha: QKEVEQNSGPLSVPEGAIASLNCTYSDRGSQSFFWYRQYSGKSPELIMFIYSNGDKEDGRFTAQLNKASQYVSLLIRDSQPSDSATYLCAVMGNTDKLIFGTGTRLQVFP Vbeta: NAGVTQTPKFQVLKTGQSMTLQCAQDMNHEYMSWYRQDPGMGLRLIHYSVGAGITDQGEVPNGYNVSRSTTEDFPLRLLSAAPSQTSVYFCASSYGVGSPLHFGNGTRLTVT",binding result,PIWIL1 peptide on HLA [2],recognises
"TCR of SEQ ID NOs 507 and 508 (TCR, V domains shown) Valpha: QKEVEQNSGPLSVPEGAIASLNCTYSDRGSQSFFWYRQYSGKSPELIMFIYSNGDKEDGRFTAQLNKASQYVSLLIRDSQPSDSATYLCAVKTSYDKVIFGPGTSLSVIP Vbeta: NAGVTQTPKFQVLKTGQSMTLQCAQDMNHEYMSWYRQDPGMGLRLIHYSVGAGITDQGEVPNGYNVSRSTTEDFPLRLLSAAPSQTSVYFCASSYGAGAFYTFGSGTRLTVV",binding result,PIWIL1 peptide on HLA [2],recognises
"TCR of SEQ ID NOs 511 and 512 (TCR, V domains shown) Valpha: KQEVTQIPVALSVPEGENLVLNCSFTDSAIYNLQWFRQDPGKGLTSLLLIQSSQREQTSGRLNASLDKSSGRSTLYIAASQPGDSATYLCAVSPYNNNDMRFGAGTRLTVKP Vbeta: NAGVTQTPKFQVLKTGQSMTLLCAQDMNHEYMYWYRQDPGMGLRLIHYSVGEGTTDKGEVPNGYNVSRSTTEDFPLRLLSAAPSQTSVYFCASSFTGDSPLHFGNGTRLTVT",binding result,PIWIL1 peptide on HLA [1],recognises
"TCR of SEQ ID NOs 575 and 576 (TCR, V domains shown) Valpha: KQEVTQIPAALSVPEGENLVLNCSFTDSAIYNLQWFRQDPGKGLTSLLLIQSSQREQTSGRLNASLDKSSGRSTLYIAASQPGDSATYLCAALSYNTDKLIFGTGTRLQVFP Vbeta: NAGVTQTPKFQVLKTGQSMTLQCAQDMNHNSMYWYRQDPGMGLRLIYYSASEGTTDKGEVPNGYNVSRLNKREFSLRLESAAPSQTSVYFCASSEAYLAAFFGQGTRLTVV",binding result,SLC45A2 peptide on HLA,recognises
"TCR of SEQ ID NOs 499 and 500 (TCR, V domains shown) Valpha: KQEVTQIPAALSVPEGENLVLNCSFTDSAIYNLQWFRQDPGKGLTSLLLIQSSQREQTSGRLNASLDKSSGRSTLYIAASQPGDSATYLCAVIDRAYSGAGSYQLTFGKGTKLSVIP Vbeta: NAGVTQTPKFRILKIGQSMTLQCTQDMNHNYMYWYRQDPGMGLKLIHYSVGAGITDQGEVPNGYNVSRSTTEDFPLRLLSAAPSQTSVYFCASSLGVSYNEQFFGPGTRLTVL",binding result,PIWIL1 peptide on HLA [3],recognises
